{
  "source": "the nanobody polyreactivity screen of Harvey et al. (2022)",
  "data": [
    {"experiment": "yeast display, Sf9 membrane polyspecificity reagent, FACS + sequencing; frameworks hold sequencing errors", "how_it_was_run": "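Nanobodies came from a synthetic yeast display library in Saccharomyces cerevisiae BJ5465, induced with galactose for 36–48 hours and stained for 1 hour at 4 °C with 10% biotinylated, detergent-solubilized Sf9 membrane reagent. Cells were enriched on streptavidin microbeads and then FACS-sorted, with low and high (top ~1%) gates set on anti-HA fluorescence for expression and streptavidin fluorescence for reagent binding. Each polyreactivity label reflects the gate a clone came from. Genes were amplified by colony PCR, sequenced by MiSeq 2 × 250 and filtered by CDR length.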", "values": [
      {"sequence": "QVQLVESGGGLVQAGGSLRLSCAASGSTFVYYDMGWYRQAPGQERELVATINGSGSRTNYADSVKGRFTISRDYAKNTVYLQMNSLKPEDTAVYYCAADYISYLVAGGYEDDYWGQVTQVTVSS", "polyreactivity (PSR sort gate)": "low polyreactivity"},
      {"sequence": "QVQLVESGGGLVQAGGSLRLSCAASGFTFSQYAMGWYRQAPGKERELVAAINSRGGSTYYADSVKGRFTISRDNAKNTVYLQMNSLKPEDTAVYYCNAVISGYPYEYDYWGQGTQVTVSS", "polyreactivity (PSR sort gate)": "high polyreactivity"},
      {"sequence": "QVQLVESGGGLVQAGGSLRLSCAASGRIYGIYAMGWYRQAPGKERDLVARITGGGSTNYADSVKGRFTISRDNAKYTVYLQMNSLKPEDTAVYYCAATVRRIVGNITRYDYWGQGTQVTVSS", "polyreactivity (PSR sort gate)": "low polyreactivity"},
      {"sequence": "QVQLVESGGGLVQAGGSLRLSCAASGFTFSNYDMGWYRQAPGKEREFVADIDWSGGTTYYADSVKGRFTISRDNAKNTVYLQMNSLKPEDTAVYYCATDGYRALSYKYDYWGQGTQVTVSS", "polyreactivity (PSR sort gate)": "low polyreactivity"},
      {"sequence": "QVHLYESGGGLVQLGGSLRLSCAASGTIFDYYTMGWYSQAPGKEREFVAAIAYGTNTYYADSVKGRFSISRDNAKHTVFLLLYSLKPEDTAVYYCATVGPRGLYYYWGQGTQVTVSS", "polyreactivity (PSR sort gate)": "high polyreactivity"},
      {"sequence": "QVQLVESGGGLVQAGGSLRLSCAASGSTFWVYAMGWYRQAPGKERELVATISRGGSTNYADSVKGRFTISRDNAKNTVYLQMNSLKPEDTAVYYCAAPRFYGYGYEYWGQGTQVTVSS", "polyreactivity (PSR sort gate)": "low polyreactivity"},
      {"sequence": "QVQLVESGGGLVQAGGSLRLSCAASGSTFVRNAMGWYRQAPGKERELVAAITSSGGSTYYADSVKGRFTISRDNAMKTVYLQMNSLKPEDTAVYYCNAELGSDTANYDYWGQGTQVTVSS", "polyreactivity (PSR sort gate)": "low polyreactivity"},
      {"sequence": "QVQLQESGGGLVQAGGSMRLSCAATGSISELRPMGWYSQAPGKERELVAGISTGGSTNYADSVKGRFTISRDNAKNTVFLQMNSLKPEDTAVYYCAAGSYGEGTYDYWGQGTQVTVRS", "polyreactivity (PSR sort gate)": "high polyreactivity"},
      {"sequence": "QVQLVESGGGLVQAGGSLRLSCAASGSIFQWNAMGWYRQAPGKERELVAAISTRGGRTYYADSVKGRFTISRDNAKNTVYLQMNSLKPEDTAVYYCAKQYGSYGRYYKYYYWGQGTQVTVSS", "polyreactivity (PSR sort gate)": "high polyreactivity"},
      {"sequence": "QVQLVESGGGLVQAGGSLRLSCAASGSTFSSYAMGWYRPAPGKERELVAAITSSGGSTYYADSVKGRFTISRDNAKNTVYLQMNSLKPEDTAVYYCAAADVIFWLYYYWGQGTQVTVSS", "polyreactivity (PSR sort gate)": "low polyreactivity"},
      {"sequence": "QVQLVESGGGLVQAGGSLRLSCAASGSTFRSNVMGWYRQAPGKAREFVAAITSSSATTYYADSVKGRFTISRDNAKNTVYLQMNSLKPEDTAVYYCAAGGRKAGPAGGQYYYWGQGTQVTVSS", "polyreactivity (PSR sort gate)": "low polyreactivity"},
      {"sequence": "QVQLVESGGGLVQAGGSLRLSCAASGGTFVYNAMGWYRQAPGKERELVAAIRVRGDTTYYADSVKGRFTISRDNAKNTVYLQMNSLKPEDTAVYYCAAYPDYSYYYWGQGTQVTVSS", "polyreactivity (PSR sort gate)": "high polyreactivity"},
      {"sequence": "QVQLVESGGGLVQAGGSLRLSCAASGLIFKYNVMGWYRQAPGKERELVAAITWGGTRTYYADSVKGRFTISRDNAKNTVYLQMNSLKPEDTAVYYCAVRSARIERNYWGQGTQVTVSS", "polyreactivity (PSR sort gate)": "low polyreactivity"},
      {"sequence": "QVQLVESGGGLVQAGGSLRLRCAASGHIFGRYAMGWYRQAPGKERELVAAFTSGGTTYYADSVKGRFTISRDNAKNTVYLQMNSLKPEDTAVYYCAAKFQLKRYSSPFIWYDSWGQGTQVTVSS", "polyreactivity (PSR sort gate)": "high polyreactivity"},
      {"sequence": "QVQLVESGGGLVQAGGSLRLSCAASGRIFNVYAMGWYRQAPGKERELVASITSAGSTYYADSVKGRFTISRDNAKNTVYLQMNSLKPEDTAVYYCAADSYSVYYYTYDSWGQGTQVTVSS", "polyreactivity (PSR sort gate)": "low polyreactivity"},
      {"sequence": "QVQLVESGGGLVQAGGSLRLSCAASGSTFPPYAMGWYRQAPGKEREFVARISWTGGSTYYADSVKGRFTISRDNAKNTVYLQMNCLKPEDTAVYYCAAKSYWGQGTQVTVSS", "polyreactivity (PSR sort gate)": "high polyreactivity"},
      {"sequence": "PVQLVESGGGLVQAGGSLRLSCAASGSTFAYNDLGWYRQAPGKERELVADIRSGGNTNYADSVKGRFTISRDNAKNTVYLQMNSLKPEDTAVYYCATDGYRIDVFHPDYRYDYWGQGTQETVSS", "polyreactivity (PSR sort gate)": "low polyreactivity"}
    ]}
  ]
}
